# Measurements reported in US20110256153A1 (IMMUNOGEN, published 2011).
# “And” between values parts separate entries of the source, which are not always exact repeats. Identical values can stand only once.
# T1: human CD37 (human, UniProt P11049 1-278)
# T1 sequence: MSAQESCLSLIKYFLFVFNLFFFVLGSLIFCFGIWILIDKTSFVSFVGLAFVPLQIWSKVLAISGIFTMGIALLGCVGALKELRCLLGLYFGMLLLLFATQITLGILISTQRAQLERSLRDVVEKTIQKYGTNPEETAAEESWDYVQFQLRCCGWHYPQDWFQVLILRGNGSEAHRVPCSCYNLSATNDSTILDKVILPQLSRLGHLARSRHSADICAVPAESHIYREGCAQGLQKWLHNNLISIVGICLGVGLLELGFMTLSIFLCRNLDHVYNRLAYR
# T2: macaque CD37 (macaque, UniProt P11049 1-277 (human entry))
# T2 construct: Expressed on 300-19 cells transfected with pSRa-CD37mac (300-19/CD37mac cells); also called macaca CD37; macaque derived CD37 antigen
# T2 chain: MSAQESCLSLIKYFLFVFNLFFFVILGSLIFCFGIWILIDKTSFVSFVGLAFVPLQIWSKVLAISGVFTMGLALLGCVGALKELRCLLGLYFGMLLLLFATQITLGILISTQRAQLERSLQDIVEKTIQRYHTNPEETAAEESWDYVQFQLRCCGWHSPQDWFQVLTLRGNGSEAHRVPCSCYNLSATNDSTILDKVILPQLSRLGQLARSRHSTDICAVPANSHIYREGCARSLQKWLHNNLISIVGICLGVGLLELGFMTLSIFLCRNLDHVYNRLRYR
# T3: hCD37-M45 (human/murine chimera, UniProt P11049 1-281)
# T3 construct: stably expressed on 300-19 cells; also called hCD37-M45 variant
# T3 chain: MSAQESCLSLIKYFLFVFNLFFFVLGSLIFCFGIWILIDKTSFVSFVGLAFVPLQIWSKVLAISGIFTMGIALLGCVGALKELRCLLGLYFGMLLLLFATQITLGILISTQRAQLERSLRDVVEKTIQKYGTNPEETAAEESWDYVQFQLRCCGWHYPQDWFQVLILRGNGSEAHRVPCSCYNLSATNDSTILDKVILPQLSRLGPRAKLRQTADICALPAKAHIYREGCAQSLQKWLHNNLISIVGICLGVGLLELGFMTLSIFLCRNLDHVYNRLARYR
# T4: hCD37-M1 (human/murine chimera, UniProt P11049 1-281)
# T4 construct: stably expressed on 300-19 cells; also called hCD37-M1 variant
# T4 chain: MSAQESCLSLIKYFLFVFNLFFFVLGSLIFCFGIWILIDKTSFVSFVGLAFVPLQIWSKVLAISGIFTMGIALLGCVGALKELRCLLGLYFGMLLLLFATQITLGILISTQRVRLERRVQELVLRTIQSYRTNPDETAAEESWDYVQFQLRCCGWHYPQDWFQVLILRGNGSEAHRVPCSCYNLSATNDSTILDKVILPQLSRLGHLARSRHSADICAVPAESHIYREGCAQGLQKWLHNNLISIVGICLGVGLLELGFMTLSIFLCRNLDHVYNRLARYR
# T5: hCD37-M3 (human/murine chimera, UniProt P11049 1-281)
# T5 construct: stably expressed on 300-19 cells; also called hCD37-M3 variant
# T5 chain: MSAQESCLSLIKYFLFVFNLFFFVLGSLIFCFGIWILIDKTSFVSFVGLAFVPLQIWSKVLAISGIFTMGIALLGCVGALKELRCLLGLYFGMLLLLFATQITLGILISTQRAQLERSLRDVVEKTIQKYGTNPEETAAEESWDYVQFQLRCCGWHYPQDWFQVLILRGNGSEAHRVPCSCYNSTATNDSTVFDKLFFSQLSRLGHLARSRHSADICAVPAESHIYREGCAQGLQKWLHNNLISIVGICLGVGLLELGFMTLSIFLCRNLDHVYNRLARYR
# Key:
# human CD37 [1] = target: T1, human CD37; experiment: cell-based or functional assay
# human CD37 [2] = target: T1, human CD37; experiment: flow cytometry titration on BJAB cells (FIG. 20A); apparent Kd
# human CD37 [3] = target: T1, human CD37; experiment: competition flow cytometry on BJAB cells; competitor PE-labeled muCD37-3 (1 nM)
# Method: Flow cytometry binding assays using BJAB cells and a competitive binding format were used to evaluate binding affinity of chimeric and humanized versions of CD37-3. BJAB cells were incubated with a 1 nM concentration of PE-labeled muCD37-3 antibody and competition was measured by adding varying amounts of muCD37-3, chCD37-3, huCD37-3v1.0 or huCD37-3v1.01. The samples were incubated for 3 hrs at 4° C. Then, the cells were pelleted, washed with FACS buffer and resuspended in 200 μL of PBS containing 1% formaldehyde. Samples were acquired using a FACSCalibur flow cytometer with the HTS multiwell sampler and analyzed using CellQuest Pro (all from BD Biosciences, San Diego, US). The resulting mean PE fluorescence was plotted against the amount of competing antibody used in a semi-log plot. FIG. 9B depicts the dose-response curves generated by non-linear regression for each antibody. The value for the apparent dissociation constant (Kd) of each antibody was calculated using GraphPad Prism v4 (GraphPad software, San Diego, Calif.).
# macaque CD37 = target: T2, macaque CD37; experiment: flow cytometry, 300-19/CD37mac cells
# Method: (§1) Binding specificity was tested by flow cytometry using purified antibodies. […] All murine antibodies were incubated for 3 h with either CD37-expressing 300-19 cells or the non-transfected 300-19 cells (1×10⁵ cells per sample) in 100 μL FACS buffer (RPMI-1640 medium supplemented with 2% normal goat serum). Then, the cells were pelleted, washed, and incubated for 1 h with 100 μL of FITC-conjugated goat anti-mouse IgG-antibody (Jackson Laboratory, 6 μg/mL in FACS buffer). The cells were pelleted again, washed with FACS buffer and resuspended in 200 μL of PBS containing 1% formaldehyde. Samples were acquired using a FACSCalibur flow cytometer with the HTS multiwell sampler or a FACS array flow cytometer and analyzed using CellQuest Pro (all from BD Biosciences, San Diego, US).
# The murine antibodies muCD37-3, muCD37-12, muCD37-38, […], muCD37-51, muCD37-56 and muCD37-57 were assayed for their ability to bind to 300-19/CD37mac cells expressing macaque CD37. Flow cytometry binding assays were carried out using secondary FITC-conjugated goat-anti-murine or goat-anti-human antibodies, analyzed as described in Example 2. Binding was compared to the previously described anti-CD37 antibody WR17 and the anti-CD37 SMIP TRU-016. […] In contrast, muCD37-3, muCD37-12, the previously described anti-CD37 antibody WR17 and the anti-CD37 SMIP TRU-016 are unable to bind the macaque derived CD37 antigen.
# hCD37-M45 = target: T3, hCD37-M45; experiment: flow cytometry, 300-19 cells expressing hCD37-M45
# Method: as §1
# (§2) Binding of various CD37 antibodies to cells expressing human CD37 wildtype and variants was analyzed by flow cytometry using 1.5 μg/mL of each antibody. The isolated antibodies of this invention were compared to commercially available CD37 antibody WR17, as well as the TRU-016 SMIP. […] Likewise, all antibodies tested bound the hCD37-M3 variant (FIG. 18B). In contrast, the isolated antibodies of this invention bound the hCD37-M1 variant, while TRU-016 and WR17 were unable to bind hCD37-M1 variant (FIG. 19A). The CD37-50 and CD37-51 antibodies and TRU-016 were also able to bind the hCD37-M45 variant. […] In contrast, the CD37-3, CD37-12, CD37-38, CD37-56 and CD37-57 antibodies require at least one of the AA residues in the hCD37-M45 variant that were changed to the corresponding murine AA residues for binding to the CD37 antigen.
# human CD37 [4] = target: T1, human CD37; experiment: flow cytometry titration on BJAB cells; apparent Kd
# Method: as §1
# The humanized antibodies huCD37-38, huCD37-50, huCD37-51, huCD37-56 and chCD37-57 were assayed for their binding affinity to BJAB cells in comparison to their murine counterparts. Flow cytometry binding assays were carried out using secondary FITC-conjugated goat-anti-murine and -anti-human antibodies, analyzed as described in Example 2 and dose-response curves were generated by non-linear regression for each antibody. The value for the apparent dissociation constant (Kd) of each antibody was calculated using GraphPad Prism v4 (GraphPad software, San Diego, Calif.).
# hCD37-M1 = target: T4, hCD37-M1; experiment: flow cytometry, 300-19 cells expressing hCD37-M1, 1.5 µg/mL antibody
# Method: as §1, §2
# hCD37-M3 = target: T5, hCD37-M3; experiment: flow cytometry, 300-19 cells expressing hCD37-M3, 1.5 µg/mL antibody
# Method: as §1, §2
binder,measurement,setting,value
"huCD37-3-SMCC-DM1 (antibody, human IgG1, kappa, V domains shown, DM1 attached through SMCC linker; attachment residues not stated; 3.5-4 DM1 per antibody, heavy chain version as for huCD37-3, see its note) VH: QVQVQESGPGLVAPSQTLSITCTVSGFSLTTSGVSWVRQPPGKGLEWLGVIWGDGSTNYHPSLKSRLSIKKDHSKSQVFLKLNSLTAADTATYYCAKGGYSLAHWGQGTLVTVSS VL: DIQMTQSPSSLSVSVGERVTITCRASENIRSNLAWYQQKPGKSPKLLVNVATNLADGVPSRFSGSGSGTDYSLKINSLQPEDFGTYYCQHYWGTTWTFGQGTKLEIKR","EC50 of in vitro cytotoxicity, BJAB cells",human CD37 [1],0.041 nM and 0.019 nM
same,"EC50 of in vitro cytotoxicity, Daudi cells",human CD37 [1],0.065 nM and 0.036 nM
same,"EC50 of in vitro cytotoxicity, Namalwa cells",human CD37 [1],0.033 nM
same,"EC50 of in vitro cytotoxicity, Raji cells",human CD37 [1],0.071 nM
same,"EC50 of in vitro cytotoxicity, Raji-VCR cells",human CD37 [1],0.11 nM
same,"EC50 of in vitro cytotoxicity, Ramos cells",human CD37 [1],0.16 nM
same,"EC50 of in vitro cytotoxicity, SU-DHL-4 cells",human CD37 [1],0.031 nM
same,"EC50 of in vitro cytotoxicity, WST-8 assay, Daudi cells",human CD37 [1],0.067 nM
same,"EC50 of in vitro cytotoxicity, WST-8 assay, Granta-519 cells",human CD37 [1],0.047 nM
same,Kd,human CD37 [2],0.46 nM
"huCD37-3-SPP-DM1 (antibody, human IgG1, kappa, V domains shown, DM1 attached through SPP linker; attachment residues not stated; 3.5-4 DM1 per antibody, heavy chain version as for huCD37-3, see its note) VH: QVQVQESGPGLVAPSQTLSITCTVSGFSLTTSGVSWVRQPPGKGLEWLGVIWGDGSTNYHPSLKSRLSIKKDHSKSQVFLKLNSLTAADTATYYCAKGGYSLAHWGQGTLVTVSS VL: DIQMTQSPSSLSVSVGERVTITCRASENIRSNLAWYQQKPGKSPKLLVNVATNLADGVPSRFSGSGSGTDYSLKINSLQPEDFGTYYCQHYWGTTWTFGQGTKLEIKR","EC50 of in vitro cytotoxicity, BJAB cells",human CD37 [1],0.11 nM
same,"EC50 of in vitro cytotoxicity, Daudi cells",human CD37 [1],0.12 nM
same,"EC50 of in vitro cytotoxicity, Granta-519 cells",human CD37 [1],0.13 nM
same,Kd,human CD37 [2],0.56 nM
"huCD37-3-sulfo-mal-DM4 (antibody, human IgG1, kappa, V domains shown, DM4 attached through 3-sulfo-mal linker; attachment residues not stated; 3.5-4 DM4 per antibody, heavy chain version as for huCD37-3, see its note) VH: QVQVQESGPGLVAPSQTLSITCTVSGFSLTTSGVSWVRQPPGKGLEWLGVIWGDGSTNYHPSLKSRLSIKKDHSKSQVFLKLNSLTAADTATYYCAKGGYSLAHWGQGTLVTVSS VL: DIQMTQSPSSLSVSVGERVTITCRASENIRSNLAWYQQKPGKSPKLLVNVATNLADGVPSRFSGSGSGTDYSLKINSLQPEDFGTYYCQHYWGTTWTFGQGTKLEIKR","EC50 of in vitro cytotoxicity, BJAB cells",human CD37 [1],0.11 nM
same,"EC50 of in vitro cytotoxicity, Daudi cells",human CD37 [1],0.14 nM
same,"EC50 of in vitro cytotoxicity, Granta-519 cells",human CD37 [1],0.088 nM
same,Kd,human CD37 [2],0.89 nM
"huCD37-3v1.0 (antibody, human IgG1, kappa, V domains shown, Resurfaced (humanized) CD37-3, version 1.0) VH: QVQVQESGPGLVAPSQTLSITCTVSGFSLTTSGVSWVRQPPGKGLEWLGVIWGDGSTNYHPSLKSRLSIKKDHSKSQVFLKLNSLTAADTATYYCAKGGYSLAHWGQGTLVTVSS VL: DIQMTQSPSSLSVSVGERVTITCRASENIRSNLAWYQQKPGKSPKLLVNVATNLADGVPSRFSGSGSGTDYSLKINSLQPEDFGTYYCQHYWGTTWTFGQGTKLEIKR",EC50,human CD37 [3],1 nM
"huCD37-3v1.01 (antibody, human IgG1, kappa, V domains shown, also called huCD37-3v1.1) VH: QVQVQESGPGLVAPSQTLSITCTVSGFSLTTSGVSWVRQPPGKGLEWLGVIWGDGSTNYHSSLKSRLSIKKDHSKSQVFLKLNSLTAADTATYYCAKGGYSLAHWGQGTLVTVSS VL: DIQMTQSPSSLSVSVGERVTITCRASENIRSNLAWYQQKPGKSPKLLVNVATNLADGVPSRFSGSGSGTDYSLKINSLQPEDFGTYYCQHYWGTTWTFGQGTKLEIKR",EC50,human CD37 [3],0.6 nM
"muCD37-57 (antibody, mouse IgG2a, kappa, V domains shown, Murine hybridoma antibody) VH: DVQLQESGPDLLKPSQSLSLTCTVTGYSITSGFAWHWIRQFPGNKLEWMGYILYSGSTVYSPSLKSRISITRDTSKNQFFLQLNSVTTEDTATYYCARGYYGYGAWFAYWGQGTLVTVSA VL: QIVLTQSPAIMSASPGEKVTMTCSATSSVTYMHWYQQKSGTSPKRWIYDTSKLASGVPARFSGSGSGTSYSLTISSMEAEDAATYYCQQWSDNPPTFGSGTKLEIKR",binding result,macaque CD37,binds
same,binding result,hCD37-M45,no binding (tested: 1.5 µg/mL)
same,Kd,human CD37 [4],1 nM
same,binding result,hCD37-M1,binds
same,binding result,hCD37-M3,binds
"muCD37-56 (antibody, mouse IgG1, kappa, V domains shown, Murine hybridoma antibody) VH: DVQLQESGPDLVKPSQSLSLTCTVTGYSITSGFAWHWIRQFPGNKLEWMGYIHYSGGTNYNPSLKSRVSITRDTSKNQFFLQLNSVTTEDTATYYCARGYYGFGAWFAYWGQGTLVPVSA VL: QIVLTQSPAFMSASPGDKVTMTCSASSSVTYMHWYQQKSGTSPKRWIYDTSKLASGVPARFSGGGSGTSYSLTISTMEAEDAATYYCQQWISDPPTFGGGTKLEIKR",binding result,macaque CD37,binds
same,binding result,hCD37-M45,no binding (tested: 1.5 µg/mL)
same,Kd,human CD37 [4],0.4 nM
same,binding result,hCD37-M1,binds
same,binding result,hCD37-M3,binds
